Where “and” joins values, the source holds several entries; their conditions need not be identical. Identical values can stand only once. Like-named read-outs stand apart in the source and are kept apart here. Each block holds one substance with its values, some of them ahead of it.
Experiments:
[1] = biological target: T1, human DR3 (full length, on cells) (human) (UniProt Q93038); assay: cell-based or functional assay
T1 sequence: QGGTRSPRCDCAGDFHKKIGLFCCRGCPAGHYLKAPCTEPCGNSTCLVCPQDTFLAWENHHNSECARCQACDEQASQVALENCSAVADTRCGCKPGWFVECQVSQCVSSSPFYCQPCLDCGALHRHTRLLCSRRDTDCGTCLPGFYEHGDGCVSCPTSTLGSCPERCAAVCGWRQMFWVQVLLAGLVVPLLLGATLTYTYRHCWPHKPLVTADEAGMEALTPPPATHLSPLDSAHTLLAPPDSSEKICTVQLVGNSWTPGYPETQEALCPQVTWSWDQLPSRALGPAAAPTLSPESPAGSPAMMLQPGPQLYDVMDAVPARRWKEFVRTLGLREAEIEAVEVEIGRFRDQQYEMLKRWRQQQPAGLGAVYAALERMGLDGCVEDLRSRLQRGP

[2] = biological target: human DR3 with the death domain deleted (ΔM339-P417 of SEQ ID NO:1), expressed on CHOK1SV cells (human) (UniProt Q93038); assay: flow cytometry competition: Fab vs TL1A on hDR3-expressing CHO cells (isotype control; IC50 cell: No inhib)
[3] = biological target: T1, human DR3 (full length, on cells) (human); assay: flow cytometry on CD3/CD28-stimulated human CD4+ T cells (isotype control)
TL1A (R&D Systems) [4] = biological target: TL1A (R&D Systems) (UniProt O95150); assay: cell-based or functional assay
Chain of TL1A (R&D Systems) (O95150 72-251 limits assumed): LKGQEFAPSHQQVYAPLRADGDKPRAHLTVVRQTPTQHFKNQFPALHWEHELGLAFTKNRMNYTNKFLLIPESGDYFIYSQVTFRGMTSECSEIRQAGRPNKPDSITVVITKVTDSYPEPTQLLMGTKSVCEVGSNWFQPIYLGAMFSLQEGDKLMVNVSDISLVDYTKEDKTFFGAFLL

TL1A (R&D Systems) [5] = biological target: TL1A (R&D Systems) (UniProt O95150); assay: cell-based or functional assay; remark: listed apart in the source

max % inhibition of TNFalpha, average (n 8) [1]: -1.8%
max % inhibition of TNFalpha, donor 1 [1]: 1.24%
max % inhibition of TNFalpha, donor 2 [1]: 0.75%
Substance: 0158 (Hz-aTNP isotype control Fab)
max percentage inhibition [2]: 10%

Median Fluorescent Intensity [3]: 222
Staining index (MFI Ab/MFI Isotype) [3]: 1
Substance: IgG1 isotype (antibody)

fold response, DR3 reporter, TL1A + 2.5 microg/ml MAb7441 (TL1A (R&D Systems) [4]): 3.7 fold
fold response, DR3 reporter, TL1A + 2.5 microg/ml MAb7441 (TL1A (R&D Systems) [5]): 2.3 fold and 2 fold and 1.8 fold
Substance: MAB7441 (R&D Systems), TL1A specific antibody

— patent US20170305994A1
